These results are taken from paper PMC3471833.

The target in this assay is human complement C1 esterase inhibitor (human) (UniProt P05155).
Chain of UniProt P05155 (P05155 23-500): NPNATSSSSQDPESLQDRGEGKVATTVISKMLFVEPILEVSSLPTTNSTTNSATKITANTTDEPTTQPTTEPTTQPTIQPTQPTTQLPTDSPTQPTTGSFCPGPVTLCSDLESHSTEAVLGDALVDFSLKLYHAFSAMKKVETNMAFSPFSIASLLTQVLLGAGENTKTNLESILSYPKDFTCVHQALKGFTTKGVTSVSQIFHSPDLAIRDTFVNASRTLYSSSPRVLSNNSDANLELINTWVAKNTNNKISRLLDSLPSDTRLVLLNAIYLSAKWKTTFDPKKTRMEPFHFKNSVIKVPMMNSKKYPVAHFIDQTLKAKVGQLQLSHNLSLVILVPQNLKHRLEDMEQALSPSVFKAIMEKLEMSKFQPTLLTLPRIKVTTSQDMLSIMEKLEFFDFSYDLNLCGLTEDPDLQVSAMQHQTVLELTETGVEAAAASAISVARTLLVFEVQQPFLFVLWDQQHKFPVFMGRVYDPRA

The substance Activated C1s (enzyme) registered a percentage of dead E. coli BL21 (Live/Dead staining) after antibody 2E4 and human complement plasma treated with OSCS (25.5% without GAG, 26.5% with CSA) of 8%.
